Columns and labels:
[1] = target: GST-Atrophin-1 Interacting Protein PDZ domain 2 (Homo sapiens (Human)), Q86UL8; test: G' assay; also: key of the grades not given here
[2] = target: T1, GST-SYNTENIN PDZ domain 1 (Homo sapiens (Human)), O00560; test: G assay titration, PDZ 5 ug/ml
T1 chain: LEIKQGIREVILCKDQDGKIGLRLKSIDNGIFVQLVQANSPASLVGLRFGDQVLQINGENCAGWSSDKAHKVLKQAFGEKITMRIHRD

[3] = target: T2, GST-MUPP1 PDZ domain 7 (Homo sapiens (Human)), O75970; test: G' assay; also: key of the grades not given here
T2 chain: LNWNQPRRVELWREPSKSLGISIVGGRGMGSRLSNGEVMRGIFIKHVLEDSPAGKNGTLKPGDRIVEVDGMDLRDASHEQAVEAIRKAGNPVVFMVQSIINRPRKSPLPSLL

[4] = target: T3, GST-KIAA1719 PDZ domain 1 (Homo sapiens (Human)), Q9C0E4; test: G' assay; also: key of the grades not given here
T3 chain: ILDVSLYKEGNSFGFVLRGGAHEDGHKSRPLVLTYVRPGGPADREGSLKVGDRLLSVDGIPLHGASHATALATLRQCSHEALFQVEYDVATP

[5] = target: T4, GST-SIP1 PDZ domain 2 (Homo sapiens (Human)), Q15599; test: G' assay; also: key of the grades not given here
T4 chain: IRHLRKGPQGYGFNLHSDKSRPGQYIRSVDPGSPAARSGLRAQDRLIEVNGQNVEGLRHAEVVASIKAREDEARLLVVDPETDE

[6] = target: T5, GST-KIAA1719 PDZ domain 5 (Homo sapiens (Human)), Q9C0E4; test: G' assay; also: key of the grades not given here
T5 chain: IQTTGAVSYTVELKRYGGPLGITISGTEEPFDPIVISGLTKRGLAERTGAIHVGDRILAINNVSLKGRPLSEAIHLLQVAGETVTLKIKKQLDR

[7] = target: T6, GST-KIAA1415 PDZ domain 1 (Homo sapiens (Human)), Q8TCU6; test: G' assay; also: key of the grades not given here
T6 chain: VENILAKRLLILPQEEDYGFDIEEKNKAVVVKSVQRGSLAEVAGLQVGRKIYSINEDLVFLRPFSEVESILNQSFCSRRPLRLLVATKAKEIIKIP

[8] = target: T7, GST-MUPP1 PDZ domain 4 (Homo sapiens (Human)), O75970; test: G' assay; also: key of the grades not given here
T7 chain: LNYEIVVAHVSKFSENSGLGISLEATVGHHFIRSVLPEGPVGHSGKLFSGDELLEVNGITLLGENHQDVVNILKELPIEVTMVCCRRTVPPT

[9] = target: T8, GST-GRIP 1 PDZ domain 6 (Mus musculus (Mouse)), Q925T6; test: G' assay; also: key of the grades not given here
T8 chain: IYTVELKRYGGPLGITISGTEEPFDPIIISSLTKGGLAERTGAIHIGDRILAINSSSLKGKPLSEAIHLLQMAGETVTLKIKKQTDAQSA

[10] = target: T9, GST-AIPC PDZ domain 4 (Homo sapiens (Human)), O15018; test: G' assay; also: key of the grades not given here
T9 chain: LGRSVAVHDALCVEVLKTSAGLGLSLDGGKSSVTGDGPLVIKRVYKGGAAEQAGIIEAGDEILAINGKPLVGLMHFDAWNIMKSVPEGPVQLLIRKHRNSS

[11] = target: T10, GST-TIP1 PDZ domain 1 (Table 9 insert) (Homo sapiens (Human)), O14907; test: G assay titration, PDZ 5 ug/ml
T10 chain: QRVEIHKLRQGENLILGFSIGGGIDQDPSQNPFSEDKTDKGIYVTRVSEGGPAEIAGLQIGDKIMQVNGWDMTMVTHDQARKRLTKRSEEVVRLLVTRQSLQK

[12] = target: T11, GST-KIAA1719 PDZ domain 4 (Homo sapiens (Human)), Q9C0E4; test: G' assay; also: key of the grades not given here
T11 chain: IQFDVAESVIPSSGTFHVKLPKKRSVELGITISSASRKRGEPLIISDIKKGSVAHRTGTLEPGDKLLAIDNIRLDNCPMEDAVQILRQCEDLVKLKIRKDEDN

[13] = target: GST-PSD95 PDZ domain 1 (Homo sapiens); test: G assay titration, PDZ 5 ug/ml
[14] = target: T12, GST-KIAA1719 PDZ domain 6 (Homo sapiens (Human)), Q9C0E4; test: G' assay; also: key of the grades not given here
T12 chain: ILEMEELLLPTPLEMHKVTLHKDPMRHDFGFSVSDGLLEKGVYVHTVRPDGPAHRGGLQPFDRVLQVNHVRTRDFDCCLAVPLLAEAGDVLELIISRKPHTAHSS

[15] = target: T13, GST-AF6 PDZ domain 1 (Homo sapiens (Human)), P55196; test: G' assay; also: key of the grades not given here
T13 chain: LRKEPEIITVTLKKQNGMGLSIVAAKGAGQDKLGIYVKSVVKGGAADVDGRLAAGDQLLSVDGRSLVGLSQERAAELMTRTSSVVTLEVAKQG

[16] = target: T14, GST-GRIP 1 PDZ domain 7 (Homo sapiens (Human)), Q9Y3R0; test: G' assay; also: key of the grades not given here
T14 chain: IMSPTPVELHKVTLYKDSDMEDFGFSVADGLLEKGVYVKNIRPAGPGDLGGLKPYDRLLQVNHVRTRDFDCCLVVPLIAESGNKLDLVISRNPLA

[17] = target: T15, GST-LIM Protein PDZ domain 1 (Homo sapiens (Human)), Q96HC4; test: G' assay; also: key of the grades not given here
T15 chain: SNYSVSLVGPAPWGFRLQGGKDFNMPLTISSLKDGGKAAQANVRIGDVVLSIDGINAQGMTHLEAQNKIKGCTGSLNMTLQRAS

[18] = target: T16, GST-ENIGMA PDZ domain 1 (Homo sapiens (Human)), Q9NR12; test: G' assay; also: key of the grades not given here
T16 chain: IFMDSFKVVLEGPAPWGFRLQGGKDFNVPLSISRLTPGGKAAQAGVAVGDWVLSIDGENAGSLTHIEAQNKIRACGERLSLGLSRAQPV

[19] = target: T17, GST-rat SHANK 3 PDZ domain 1 (rat), Q9JLU4; test: G' assay; also: key of the grades not given here
T17 chain: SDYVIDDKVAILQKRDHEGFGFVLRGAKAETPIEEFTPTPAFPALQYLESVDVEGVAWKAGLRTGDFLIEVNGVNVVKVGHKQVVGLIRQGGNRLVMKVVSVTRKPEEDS

GST-Atrophin-1 Interacting Protein PDZ domain 2 (Homo sapiens (Human)), Q86UL8, sequence (Q86UL8 other isoform, or with tags, fused parts or gaps): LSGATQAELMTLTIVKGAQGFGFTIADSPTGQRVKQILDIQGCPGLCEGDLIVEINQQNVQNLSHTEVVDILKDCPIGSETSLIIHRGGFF

Q: Which Classification [1] does the source give for QISPGGLEPPSEKHFRETEV (modifications not checked) [TAX] here?
A: Its Classification is 1 A450 class.

Q: How did the Kd [2] turn out when KTMPAAMYRLLTAQEQPVYI (modifications not checked) [MINT-1] was run?
A: Its Kd is 800 nM.

Q: And the Classification [3]?
A: The Classification was 3 A450 class.

Q: ILNSIQVMRAQMNQIQSVEV (modifications not checked) [ephrin B2] was tested. Which Classification [4] did it give?
A: Its Classification is 1 A450 class.

Q: And the Classification [5]?
A: Its Classification is 2 A450 class.

Q: And the Classification [6]?
A: Its Classification is 4 A450 class.

Q: What about the Classification [7] of the same binder?
A: Its Classification is 1 A450 class.

Q: What about the Classification [8] of the same binder?
A: Its Classification is 1 A450 class.

Q: And the Classification [9]?
A: The Classification was 3 A450 class.

Q: What about the Classification [10] of the same binder?
A: The Classification was 1 A450 class.

Q: Which Kd [11] does the source give for AWDDSARAAGGQGLHVTAL (modifications not checked) [LPAP] here?
A: The Kd was 5000 nM.

Q: For HDFRRAFKKILARGDRKRIV (modifications not checked) [alpha-2A Adrenergic receptor], which Classification [12] is on record?
A: Its Classification is 3 A450 class.

Q: VGTLLLERVIFPSVKIATLV (modifications not checked) [AdenoE4 typ9] was tested. Which Kd [13] did it give?
A: The Kd was 100 nM.

Q: Which Classification [14] does the source give for ELLQFCRTPNPALKNGQYWV (modifications not checked) [CSPG4 (chondroitin sulfae proteoglycan 4, melanoma-associated)] here?
A: The Classification was 5 A450 class.

Q: What about the Classification [15] of the same binder?
A: Its Classification is 5 A450 class.

Q: And the Classification [16]?
A: The Classification was 5 A450 class.

Q: Which results are given for VPGALDYAAFSSALYGESDL (modifications not checked) [a-actinin 2]?
A: Classification [17]: 4 A450 class; Classification [18]: 5 A450 class; Classification [19]: 1 A450 class

Reference: US20050282743A1, “Molecular interactions in cells” (Arbor Vita Corporation, priority 2001, published 2005)
